Measured values from the supplement of paper PMC12667976.
± gives the standard error.

B1: library; numbered along this chain (parent)
chain: MATDAALRRLLRLHRTEIAVAVDSAFPLLHALADHDVVPEDKFQETLHLKEKEGCPQAFHALLSWLLTQDSTAILDFWRVLFKDYNLERYGRLQPILDSFPKDVDLSQPRKGRKPPAVPKALVPPPRLPTKRKASEEARAAAPAALTPRGTASPGSQLKAKPPKKPESSAEQQRLPLGNGIQTMSASVQRAVAMSSGDVPGARGAVEGILIQQVFESGGSKKCIQVGGEFYTPSKFEDSGSGKNKARSSSGPKPLVRAKGAQGAAPGGGEARLGQQGSVPAPLALPSDPQLHQKNEDECAVCRDGGELICCDGCPRAFHLACLSPPLREIPSGTWRCSSCLQATVQEVQPRAEEPRPQEPPVETPLPPGLRSAGEEVRGPPGEPLAGMDTTLVYKHLPAPPSAAPLPGLDSSALHPLLCVGPEGQQNLAPGARCGVCGDGTDVLRCTHCAAAFHWRCHFPAGTSRPGTGLRCRSCSGDVTPAPVEGVLAPSPARLAPGPAKDDTASHEPALHRDDLESLLSEHTFDGILQWAIQSMARPAAPFPS

Variants of: B1
Assay: AIRE transcriptional activation functional score (insulin promoter-GFP; nonsense median 0, synonymous median 1) (normalised score); higher = higher AIRE activity (more reporter activation)
Settings: with insulin promoter-GFP reporter in HEK293
Description: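 Deep mutational scan of full-length human AIRE (codon-optimized cDNA, DT-POPCode NNN libraries over three regions) integrated at a Bxb1 landing pad in HEK293 cells carrying an insulin core promoter-GFP reporter at a Flp-In site. Cells were sorted for the top 10% GFP about 14 days after transfection. Variant frequency log-ratios (select vs non-select, TileSeq) were rescaled so that the nonsense median is 0 and the synonymous median is 1, then averaged over biological replicates.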

Point of comparison: G369T, “AIRE transcriptional activation functional score” value 0.912 ± 0.61. Against it:
- G150F — within error, 1.34 ± 0.12
- G150V — within error, 0.822 ± 0.59
- T68Y — within error, 0.495 ± 0.42
- T68I — lower, -0.358 ± 0.46
- V123R — within error, 0.872 ± 0.33
- V123E — within error, 0.862 ± 0.25
- G498A — within error, 1.09 ± 0.12
- S239I — within error, 0.737 ± 0.38
- S239G — within error, 1.05 ± 0.19
- A265Q — within error, 0.479 ± 0.37
- A461K — within error, 1.18 ± 0.052
- Q69K — within error, 0.102 ± 0.77
- Q69P — within error, 0.118 ± 0.37
- Q69R — within error, 1.15 ± 0.56
- P129N — within error, 0.901 ± 0.6
- A493G — within error, 1.15 ± 0.18
- P125M — within error, 1.18 ± 0.048
- A5M — within error, 0.955 ± 0.1
- A5W — within error, 0.849 ± 0.1
- K102L — within error, 0.643 ± 0.63
- A205H — within error, 1.58 ± 0.18
- A205T — within error, 1.19 ± 0.24
- L385F — within error, 0.899 ± 0.2
- L29W — lower, 0.224 ± 0.056
- P405G — within error, 0.341 ± 0.094
- P481K — within error, 1.02 ± 0.054
- T447S — within error, 1.29 ± 0.18
- R351F — within error, 1.16 ± 0.44
- D36H — lower, -1.75 ± 0.66
- D36M — lower, -0.672 ± 0.13
- P398M — within error, 0.82 ± 0.099
- G242S — within error, 0.694 ± 0.36
- P166Q — within error, 1.16 ± 0.41
- H523R — lower, -0.128 ± 0.24
- L175C — within error, 0.818 ± 0.68
- S402E — within error, 0.833 ± 0.11
- P331K — within error, 0.702 ± 0.37
- P331D — within error, 1.29 ± 0.33
- P331G — within error, 1.07 ± 0.46
- P331E — within error, 0.93 ± 0.17
- R272N — within error, 1.37 ± 0.067
- S339R — within error, 1.11 ± 0.2
- K243E — within error, 0.511 ± 0.13
- P266R — within error, 0.795 ± 0.33
- D502T — within error, 0.991 ± 0.13
- R378Q — within error, 0.825 ± 0.16
- R378S — within error, 0.975 ± 0.23
- A193Y — within error, 1.05 ± 0.18
- P544T — within error, 0.985 ± 0.49
- G155T — within error, 0.66 ± 0.12
- R356K — within error, 0.935 ± 0.089
- S372E — within error, 1.3 ± 0.15
- S372T — within error, 0.951 ± 0.35
- P282I — within error, 1.43 ± 0.19
- P282T — within error, 1.27 ± 0.22
- K235Q — within error, 1.04 ± 0.24
- G306W — within error, 0.744 ± 0.018
- G306A — within error, 0.976 ± 0.23
- G306D — within error, 0.954 ± 0.19
- Q44F — higher, 1.98 ± 0.19
- Q44N — within error, 0.983 ± 0.35
- Q44K — within error, 1.33 ± 0.33
- G408R — within error, 0.906 ± 0.26
- G408L — lower, 0.00278 ± 0.23
- Q94I — within error, 1.17 ± 0.84
- Q94W — within error, 1.53 ± 0.47
- Q94V — within error, 1.42 ± 0.51
- P380N — within error, 1.52 ± 0.1
- L28E — lower, -1.34 ± 0.96
- R8E — lower, -0.344 ± 0.079
- V443D — lower, 0.0282 ± 0.049
- V443N — within error, 0.847 ± 0.14
- G462R — within error, 1.01 ± 0.11
- F453G — within error, 0.315 ± 0.17
- S521N — within error, 0.923 ± 0.2
- S156A — within error, 0.976 ± 0.7
- A258D — within error, 0.387 ± 0.22
- G313S — within error, 0.974 ± 0.32
- E354W — within error, 1.16 ± 0.018
- A191R — within error, 1.2 ± 0.24
- A540N — within error, 1.02 ± 0.19
- G240W — within error, 1.09 ± 0.12
- G240F — within error, 0.96 ± 0.081
- K159D — within error, 0.68 ± 0.32
- K159G — within error, 0.883 ± 0.64
- H415C — within error, 0.616 ± 0.035
- H415K — within error, 0.65 ± 0.6
- S107N — lower, 0.000996 ± 0.21
- G178V — within error, 1.28 ± 0.4
- D514G — within error, 0.3 ± 0.27
- A61W — within error, 1.46 ± 0.13
- C434Q — within error, 0.225 ± 0.23
- M184D — lower, -0.962 ± 0.4
- L406M — within error, 1.3 ± 0.16
- L406F — within error, 0.76 ± 0.32
- L406I — within error, 1.19 ± 0.096
- E522W — lower, -1.23 ± 0.14
- A58T — within error, 0.166 ± 0.52
- P483S — within error, 0.811 ± 0.27
- E363D — within error, 0.917 ± 0.049
- K165L — within error, 0.369 ± 0.6
- R257W — within error, 0.743 ± 0.19
- A142H — within error, 0.486 ± 0.85
- Y85C — within error, 0.367 ± 0.2
- Y85D — lower, 0.0634 ± 0.032
- G277S — within error, 0.459 ± 0.24
- G277K — within error, 1.22 ± 0.26
- D103K — within error, 0.633 ± 0.14
- S64A — within error, -0.0317 ± 0.36
- G112A — within error, 1.49 ± 0.71
- G424H — within error, 0.363 ± 0.25
- P163D — lower, -0.123 ± 0.17
- P163I — within error, 1.05 ± 0.22
- A317F — within error, 0.813 ± 0.12
- A317G — within error, 0.974 ± 0.3
- G374D — within error, 0.16 ± 0.23
- V104S — within error, -0.0986 ± 0.53
- V104F — within error, 1.15 ± 0.26
- S535K — lower, -0.212 ± 0.16
- A246Q — lower, -0.0407 ± 0.11
- A246V — within error, 1.12 ± 0.29
- L283H — within error, 1.15 ± 0.15
- L283Y — within error, 1.19 ± 0.19
- G218A — within error, 1.02 ± 0.25
- C302A — within error, 0.669 ± 0.098
- C337V — within error, 1.13 ± 0.11
- R132N — lower, -0.47 ± 0.23
- R465Q — within error, 0.443 ± 0.2
- E88R — higher, 2.71 ± 0.41
- Q346A — within error, 0.913 ± 0.36
- Q346E — within error, 1.18 ± 0.093
- D478T — within error, 0.678 ± 0.31
- D478M — within error, 0.485 ± 0.043
- D478I — within error, 1.06 ± 0.083
- L106K — within error, 0.511 ± 0.29
- E216N — higher, 1.75 ± 0.14
- L49A — within error, 0.327 ± 0.31
- G305R — within error, 0.945 ± 0.35
- Q172T — within error, 1.56 ± 1.1
- Q172I — higher, 2.08 ± 0.26
- V487A — within error, 1.02 ± 0.19
- G197H — within error, 0.619 ± 0.079
- W455V — within error, 1.17 ± 0.15
- I309S — within error, 1.35 ± 0.13
- P460D — lower, 0.0955 ± 0.17
- K161L — within error, 1.14 ± 0.52
- G267C — within error, 1.11 ± 0.2
- G267L — within error, 0.938 ± 0.43
- P422L — within error, 1.3 ± 0.4
- N244I — within error, 1.07 ± 1.1
- P490L — within error, 1.12 ± 0.27
- F43E — lower, -1.08 ± 0.65
- C314E — within error, 0.893 ± 0.12
- H512Y — within error, 0.777 ± 0.082
- A170K — higher, 1.97 ± 0.053
- H292W — within error, 1.03 ± 0.047
- L7S — within error, 0.248 ± 0.41
- L7Y — lower, 0.122 ± 0.12
- G180A — within error, 1.21 ± 0.29
- C322K — within error, 1.21 ± 0.19
- C322G — within error, 1.24 ± 0.1
- V420P — within error, 1.01 ± 0.37
- V420D — within error, 0.683 ± 0.26
- G382S — within error, 0.979 ± 0.19
- A73T — within error, 1.01 ± 0.13
- L146M — within error, 0.496 ± 0.058
